From PMC6753193 (2019)
Where no end group is shown, it is not given here. [ ]: non-standard residue; d: D form. pS = N[C@@H](COP(=O)(O)O)C(=O)O

Target: recombinant human PP1α (residues 7–300) (human, UniProt P62136 7-300)
Experiment: SPR

recombinant human PP1α (residues 7–300), sequence (P62136 7-300): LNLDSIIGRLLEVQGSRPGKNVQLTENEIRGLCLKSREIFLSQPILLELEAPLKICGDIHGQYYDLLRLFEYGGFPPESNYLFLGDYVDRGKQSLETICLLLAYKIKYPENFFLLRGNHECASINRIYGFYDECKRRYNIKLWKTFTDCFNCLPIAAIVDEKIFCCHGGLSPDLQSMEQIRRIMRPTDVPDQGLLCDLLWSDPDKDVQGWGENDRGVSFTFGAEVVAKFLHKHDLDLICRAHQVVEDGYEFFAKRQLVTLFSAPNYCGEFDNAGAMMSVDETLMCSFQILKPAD

B1: pRb-Tat hybrid peptide (peptide)
peptide: HIPR[pS]PYKFPSSPLRKKCCFHCQVCFITK
modifications: cysteine pairing not given here
  koff: 0.00394 s⁻¹
